Results: the supplement of paper PMC11908140

B1: library; numbered along this chain (parent)
chain: MRKPRAAVGSGHRKQAASQEGRQKHAKNNSQAKPSACDGLARQPEEVVLQASVSSYHLFRDVAEVTAFRGSLLSWYDQEKRDLPWRRRAEDEMDLDRRAYAVWVSEVMLQQTQVATVINYYTGWMQKWPTLQDLASASLEEVNQLWAGLGYYSRGRRLQEGARKVVEELGGHMPRTAETLQQLLPGVGRYTAGAIASIAFGQATGVVDGNVARVLCRVRAIGADPSSTLVSQQLWGLAQQLVDPARPGDFNQAAMELGATVCTPQRPLCSQCPVESLCRARQRVEQEQLLASGSLSGSPDVEECAPNTGQCHLCLPPSEPWDQTLGVVNFPRKASRKPPREESSATCVLEQPGALGAQILLVQRPNSGLLAGLWEFPSVTWEPSEQLQRKALLQELQRWAGPLPATHLRHLGEVVHTFSHIKLTYQVYGLALEGQTPVTTVPPGARWLTQEEFHTAAVSTAMKKVFRVYQGQQPGTCMGSKRSQVSSPCSRKKPRMGQQVLDNFFRSHISTDAHSLNSAAQ

Variants of: B1
Assay: 8OG:A repair function score (normalized; synonymous = 0, nonsense = -1) (normalized log-likelihood score); higher = more repair activity (WT-like)
Settings: with 8OG:A DNA repair reporter (GFP) in HEK-293 MUTYH KO cells
Outline: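 Lentiviral MUTYH cDNA NNN codon-scan libraries were expressed in MUTYH knockout HEK-293 cells with 10 pg/ml doxycycline, and the cells received an 8OG:A GFP repair reporter together with mCherry. At 72 h, viable mCherry+ cells went into GFP+ (repair) or GFP− bins, three replicates per tile, before tile amplicons were sequenced. A repair function score was then built from per-tile Rosace fitness scores, anchored on the synonymous and nonsense distributions. Synonymous medians sat at 0 and nonsense at -1, and variants under 300 counts per million at the start were left out.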
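Also: cells sorted at 72 h after reporter transfection.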

Variant | 8OG:A repair function score
G309F | 0.0213
G309N | -0.0326
G309C | -0.165
G309Q | -0.105
G309H | 0.0104
G309A | -0.0354
G309W | -0.149
G309T | -0.00848
G309V | -0.0173
G309D | -0.000739
G309R | -0.0133
G309L | -0.0772
G309I | -0.145
G309P | -0.0923
G309Y | -0.0852
G309E | 0.02
G309S | -0.0582
G309M | -0.0498
G309K | -0.0254
H312M | -0.0518
H312A | -0.0906
H312K | 0.0995
H312P | -0.0124
H312Y | -0.0454

Variant | 8OG:A repair function score
H312T | -0.112
H312L | 0.0443
H312I | 0.0886
H312R | -0.0802
H312N | -0.0171
H312V | 0.078
H312C | -0.0404
H312S | -0.0172
H312F | -0.000263
H312Q | -0.0663
H312E | 0.0205
H312D | -0.0268
H312W | -0.103
H312G | -0.0894
V301S | -0.344
V301F | -0.175
V301H | -0.166
V301G | -0.279
V301D | -0.39
V301K | -0.283
V301N | -0.386
V301C | -0.217
V301Y | -0.219
V301R | -0.275

Variant | 8OG:A repair function score
V301T | -0.284
V301E | -0.439
V301A | -0.249
V301L | -0.0363
V301Q | -0.242
V301P | -0.31
V301M | -0.126
V301W | -0.211
V301I | -0.0154
S296I | -0.0485
S296V | 0.0116
S296N | -0.0281
S296C | -0.0117
S296M | -0.0125
S296A | -0.0202
S296K | -0.0357
S296Q | -0.00136
S296G | -0.0331
S296L | -0.0062
S296R | 0.0309
S296W | 0.0254
S296E | -0.0247
S296D | 0.0216
S296F | -0.00655

Variant | 8OG:A repair function score
S296H | -0.0357
S296Y | 0.0195
S296P | -0.00535
S296T | -0.0451
T308D | -0.0467
T308E | -0.0446
T308N | 0.0456
T308Q | 0.0017
T308F | -0.0849
T308S | -0.000367
T308L | -0.0193
T308G | -0.0427
T308A | 0.0246
T308R | 0.0174
T308H | -0.0553
T308K | -0.0882
T308P | -0.0519
T308C | -0.00889
T308I | -0.0904
T308Y | -0.0509
T308W | 0.00192
T308V | -0.00366
T308M | -0.0648
D300L | -0.189

Variant | 8OG:A repair function score
D300G | -0.148
D300K | -0.325
D300H | -0.0192
D300Q | -0.112
D300M | -0.0873
D300A | -0.149
D300E | -0.0547
D300V | -0.0916
D300W | -0.16
D300F | -0.255
D300T | -0.109
D300N | -0.0764
D300I | -0.191
D300Y | -0.121
D300S | -0.139
D300P | -0.0407
D300R | -0.291
D300C | -0.0631
Q310R | -0.0435
Q310W | -0.0199
Q310D | 0.0119
Q310H | -0.0309
Q310P | -0.0353
Q310L | -0.0215

Variant | 8OG:A repair function score
Q310C | 0.0147
Q310Y | -0.0597
Q310M | -0.0144
Q310T | 0.0177
Q310G | -0.0488
Q310F | -0.0295
Q310A | -0.00829
Q310E | -0.0263
Q310N | 0.00143
Q310V | -0.0252
Q310I | 0.0174
Q310K | -0.0227
Q310S | -0.0462
P299K | -0.0515
P299Q | -0.00604
P299E | -0.036
P299W | -0.0506
P299T | -0.0424
P299F | 0.00405
P299H | 0.0118
P299N | -0.099
P299I | -0.00528
P299L | -0.0164
P299C | -0.0402

Variant | 8OG:A repair function score
P299R | -0.000753
P299S | -0.0568
P299V | -0.0192
P299A | -0.0132
P299G | -0.0369
P299Y | -0.00692
P299D | 0.0184
P299M | -0.0166
E302S | -0.307
E302P | -0.223
E302W | -0.215
E302I | -0.284
E302N | -0.316
E302M | -0.216
E302C | -0.32
E302A | -0.273
E302H | -0.259
E302Q | -0.207
E302T | -0.238
E302L | -0.236
E302Y | -0.246
E302V | -0.232
E302F | -0.253
E302D | -0.367

Variant | 8OG:A repair function score
E302R | -0.254
E302G | -0.316
E302K | -0.367
A305G | -0.0138
A305W | -0.0242
A305V | -0.0191
A305D | -0.0865
A305P | -0.125
A305C | -0.0298
A305L | -0.00389
A305M | -0.0121
A305S | -0.019
A305H | -0.0126
A305I | 0.00729
A305E | -0.0473
A305T | -0.034
A305N | 0.00434
A305Q | -0.0168
A305R | -0.0332
A305F | -0.0551
A305K | -0.0297
A305Y | 0.000265
L313C | -0.146
L313M | 0.00327

Variant | 8OG:A repair function score
L313E | -0.601
L313I | -0.156
L313G | -0.386
L313A | -0.4
L313H | -0.299
L313D | -0.363
L313F | -0.0503
L313N | -0.337
L313K | -0.581
C304E | -0.556
C304G | -0.343
C304Y | -0.341
C304M | -0.303
C304N | -0.439
C304V | -0.331
C304H | -0.403
C304L | -0.16
C304W | -0.296
C304Q | -0.421
C304T | -0.454
C304I | -0.257
C304A | -0.225
C304D | -0.518
C304P | -0.398

Variant | 8OG:A repair function score
C304R | -0.464
C304K | -0.535
C304S | -0.289
C304F | -0.29
N307K | -0.0345
N307V | 0.0207
N307H | -0.0535
N307Y | -0.0923
N307T | -0.07
N307G | -0.0226
N307D | 0.0758
N307A | -0.0752
N307R | -0.00117
N307C | -0.119
N307F | -0.00176
N307L | -0.079
N307M | -0.145
N307P | -0.0382
N307Q | -0.00475
N307I | -0.0284
N307W | -0.0672
N307S | -0.00118
N307E | -0.0119
S298L | 0.0173

Variant | 8OG:A repair function score
S298T | 0.00821
S298W | -0.00249
S298M | -0.0331
S298D | -0.0341
S298C | -0.0366
S298A | -0.000852
S298Q | -0.0174
S298G | 0.0202
S298H | 0.0283
S298K | -0.0342
S298P | 0.0228
S298N | -0.0213
S298I | 0.0307
S298V | 0.00493
S298R | -0.0386
S298E | -0.0588
S298F | -0.0178
S298Y | -0.0154
P306D | -0.0656
P306L | -0.00346
P306R | -0.0125
P306A | -0.0211
P306I | -0.0314
P306G | -0.0173

Variant | 8OG:A repair function score
P306T | -0.00972
P306F | -0.0382
P306Y | -0.0217
P306K | -0.0963
P306C | -0.044
P306M | -0.0214
P306N | -0.00787
P306Q | 0.0003
P306S | -0.0289
P306V | -0.015
P306E | -0.0828
P306H | -0.0537
P306W | -0.009
G297Q | -0.0223
G297S | -0.00596
G297C | 0.00942
G297F | 0.016
G297K | 0.0192
G297I | -0.0605
G297R | -0.0667
G297Y | -0.0582
G297L | -0.000773
G297H | 0.00021
G297M | -0.00568

Variant | 8OG:A repair function score
G297D | -0.0132
G297A | -0.00898
G297T | 0.0201
G297V | 0.0126
G297N | -0.00835
G297W | -0.206
G297E | -0.0194
G297P | -0.0639
E303D | -0.0577
E303T | -0.0474
E303R | -0.0675
E303A | -0.0517
E303G | -0.0952
E303I | -0.101
E303N | -0.0416
E303H | -0.102
E303S | -0.0938
E303L | -0.0849
E303V | -0.0344
E303W | -0.175
E303K | -0.0605
E303F | -0.112
E303P | -0.218
E303Q | 0.0405

Variant | 8OG:A repair function score
E303C | -0.0302
E303M | 0.000479
E303Y | -0.231
C311N | -0.628
C311Y | -0.394
C311K | -0.39
C311H | -0.471
C311S | -0.588
C311A | -0.544
C311F | -0.55
C311D | -0.559
C311R | -0.481
C311M | -0.621
C311E | -0.757
C311I | -0.59
C311P | -0.312
C311T | -0.566
C311Q | -0.575
C311G | -0.505
C311W | -0.459
C311V | -0.634
C311L | -0.479
